The target of assay [1] is trimeric Spike K417N/E484K/N501Y (SARS-CoV-2) (UniProt P0DTC2). Kind of assay: Luminex bead-based binding assay.
Assay [2] addresses trimeric Spike, full P.1 variant (SARS-CoV-2) (UniProt P0DTC2). Kind of assay: Luminex bead-based binding assay.

As to REGN10933 (antibody), the fold reduced binding affinity is 60 fold in assay [1] and 195 fold in assay [2].

These data come from publication PMC8452523.
